From article PMC6598250 come the findings set out here.

One may read the Kd as the concentration at which binding is half-saturated. Lower therefore signals a tighter complex. The term stoichiometry N denotes a count of units in the complex or per binding partner.

The target of this assay is unfolded precursor form of maltose binding protein (preMBP) (E. coli). Put plainly: ITC; 120 uM SecB or SecB_(T10A) titrated into 20 uM preMBP; 25 °C; KPB buffer pH 7.4, 100 mM; MicroCal PEAQ-ITC; triplicate. (In general: Isothermal titration calorimetry measures the heat released or taken up as one component is titrated into another.)

Take “SecB chaperone, wild type (from UniProt P0AG86 1-153) (natural protein)”: the Kd was 61.7 µM, the dH was -1.48 kcal/mol and the stoichiometry N worked out at 3.08.

As to “SecB_(T10A) (from UniProt P0AG86 1-153) (natural protein)”, the Kd amounted to 5.2 µM, the dH is -1.99 kcal/mol and the stoichiometry N was determined as 4.99.
